Experiment [1] concerns the target T1, human TNFR2 on the surface of CHO-TNFR2 cells (human, UniProt P20333 23-461).
T1 construct: whole, on cells
T1 sequence (looked up): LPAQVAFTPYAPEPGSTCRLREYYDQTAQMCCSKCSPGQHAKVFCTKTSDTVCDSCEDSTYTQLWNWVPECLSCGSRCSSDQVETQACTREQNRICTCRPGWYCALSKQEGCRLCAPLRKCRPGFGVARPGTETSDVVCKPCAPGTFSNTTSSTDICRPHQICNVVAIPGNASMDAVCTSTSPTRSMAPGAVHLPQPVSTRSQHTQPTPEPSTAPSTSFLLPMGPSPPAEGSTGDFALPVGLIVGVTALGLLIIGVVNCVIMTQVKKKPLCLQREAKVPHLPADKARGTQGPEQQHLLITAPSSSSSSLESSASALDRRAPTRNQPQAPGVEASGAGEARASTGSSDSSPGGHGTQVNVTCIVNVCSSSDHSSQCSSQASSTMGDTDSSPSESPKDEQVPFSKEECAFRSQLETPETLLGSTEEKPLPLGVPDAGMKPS
The experiment can be described thus: flow cytometry on CHO-TNFR2 cells; EC50 against 224-WT. On the procedure:
(§1) The transfected full-length plasmid of human TNFR2 was purchased from Sino Biological (Cat #HG10417-UT, NCBI Ref Seq: NM_001066.2). The experiment was conducted at a cell density within 80%. The cell medium was discarded; the cells were rinsed with PBS, and digested with 1 ml trypsin for 2 minutes; the digestion was stopped with a Ham's F12 complete medium containing 10% FBS, and then a cell suspension was made. The cell suspension was counted, and then an appropriate amount of cell suspension was centrifuged at 350×g; the supernatant was discarded; a corresponding volume of blocking solution (10% FBS+PBS) at a density of 1×10⁷ cells/ml was added to resuspend the cells, and the mixture was incubated at 4° C. for 30 minutes. After the incubation, the mixture was centrifuged at 350×g to remove the supernatant, and the cells were resuspended in a staining buffer (2% FBS+PBS) to a density of 2×10⁶ cells/ml, and spread onto a 96-well plate, with 50 μl of cell suspension added to each well for later use. The antibody was diluted with PBS for 10-fold gradient dilution from the highest concentration of 20 μg/m (twice the concentration); the diluted antibody was added to the well containing 50 μl of cell suspension, and placed on a microplate shaker for shaking at 500 rpm for 1 minute, so that the antibody was fully mixed with the cells; the mixture was incubated at 4° C. for 1 h. After the incubation, the cells were washed twice with the staining buffer, with 100 μl per well, and centrifuged at 350-g for 5 minutes, and the supernatant was discarded. The PE goat anti-Human IgG Fc antibody (ebioscience, Cat #12-4998-82) was diluted 250-fold with the staining buffer, with a volume of 100 μl per well added to the washed cell wells; the mixture was mixed evenly, and stained at 4° C. for 30 minutes. After the staining, similarly, the cells were washed twice with the staining buffer; finally, the cells were resuspended in 200 μl of staining buffer; signals were detected by a flow cytometer (Thermo Attune NxT). The stronger the signal, the stronger the binding ability of an antibody to TNFR2. The binding curve of an antibody was drawn with antibody concentration as the abscissa and corresponding mean fluorescence intensity (MFI) fold as the ordinate, and fitted with four parameters (GraphPad Prism9) to calculate the EC50 value.
In general terms: In flow cytometry, cells or beads pass a laser one at a time.

Experiment [2] addresses T2, Cynomolgus TNFR2-His (Sino 90102-C08H) (cynomolgus monkey, UniProt A0A2K5VET2 132-366).
T2 construct: Bought protein; also called cynomolgus monkey TNFR2; recombinant cynomolgus monkey TNFR2 protein; not shown: His tag
T2 sequence: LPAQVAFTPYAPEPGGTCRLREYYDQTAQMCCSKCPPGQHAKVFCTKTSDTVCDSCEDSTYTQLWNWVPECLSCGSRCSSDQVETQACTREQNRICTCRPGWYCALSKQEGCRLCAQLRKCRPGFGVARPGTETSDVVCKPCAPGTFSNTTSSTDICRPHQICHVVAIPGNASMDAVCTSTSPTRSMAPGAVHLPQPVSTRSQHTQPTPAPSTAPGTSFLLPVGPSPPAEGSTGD
Description: ELISA, cynomolgus TNFR2-His coated; EC50 against 224-WT. On the procedure:
The test humanized antibody against TNFR2 (as described in Example 1, the antibody was comprised of variable regions linked to IgG-Fc; the WT chimeric antibody also adopted the IgG-Fc structure) was subjected to 3.33-fold gradient dilution, loaded with 100 μl/well, and incubated with shaking at room temperature for 1.5 hours. The plate was washed, and then a working solution of murine anti-human IgG Fc-HRP (diluted at 1:10000) was added, loaded with 100 μl/well, and incubated with shaking at room temperature for 1.0 hour. The plate was washed again, and then the substrate TMB of HRP was added to develop colour. A stop solution was added to stop the reaction, and then a microplate reader (MD 13) was used to read the absorbance value. The binding curve of an antibody was drawn with antibody concentration as the abscissa and corresponding OD value as the ordinate, and fitted with four parameters (GraphPad Prism9) to calculate the EC50 value. The smaller the EC50 value, the stronger the binding ability of an antibody to human/cynomolgus monkey TNFR2. The binding effect of a humanized antibody was normalized to its corresponding human-murine chimeric antibody WT (see SEQ ID NOs: 38-43 for the sequence). The higher the percentage value, the better the binding effect of the humanized antibody. The results of binding of an anti-TNFR2 antibody to a human TNFR2 protein are shown in FIG. 1 and Table 4, and the results of binding of an anti-TNFR2 antibody to cynomolgus monkey TNFR2 are shown in FIG. 2 and Table 4.
(In general: An ELISA detects its analyte on a solid surface through an enzyme-linked reagent.)

The target in experiment [3] is T1, human TNFR2 on the surface of CHO-TNFR2 …. The experiment can be described thus: flow cytometry on CHO-TNFR2 cells; AUC, reference itself. On the procedure:
as §1, with “The PE goat anti-Human IgG Fc antibody (ebioscience, Cat #12-4998-82) was diluted 250-fold with the staining buffer, with a volume of 100 μl per well added to the washed cell wells; the mixture was mixed evenly, and stained at 4° C. for 30 minutes.” left out, “The stronger the signal, the stronger the binding ability of an antibody to TNFR2.” left out

B1: 224-Hu1 (antibody, V domains shown)
VH: QVQLVQSGAEVKKPGASVKVSCKASGFNNKDIYMHWVRQAPGQGLEWIGRIDPATGNTKHDPKFQDRVTMTSDTSTNTVYMELSSLRSEDTAVYYCARSPYGDFGAMDYWGQGTLVTVSS
VL: DIQMTQSPSSLSASVGDRVTITCTASSSVSSNYLHWYQQKPGKAPKLWIYSTSNLPSGVPSRFSGSGSGTDFTLTISSLQPEDFATYYCHQYHRSPWTFGQGTKVEIK
notes: Humanized form of #224; also called VH8 + VL6
As to B1, the entries for the “% Relative activity (WT antibody/test antibody)” value in experiment [1] and in experiment [2] were 94.5% and 105%, respectively.

B2: 224-Hu7 (antibody, V domains shown)
VH: QVQLVQSGSELKKPGASVKVSCKASGFNNKDIYMHWVRQAPGQGLEWMGRIDPATGNTKHDPKFQDKAVLSSDTSVSTAYLQISSLKAEDTAVYYCARSPYGDFGAMDYWGQGTLVTVSS
VL: DIQMTQSPSSLSASVGDRVTITCTASSSVSSNYLHWYQQKPGKAPKLLIYSTSNLPSGVPSRFSGSGSGTDFTLTISSLQPEDFATYYCHQYHRSPWTFGQGTKVEIK
notes: Humanized form of #224; also called VH9 + VL10
As to B2, the “% Relative activity (WT antibody/test antibody)” value in experiment [1] stood at 140%; in experiment [2] it was 116%.

B3: 224-Hu6 (antibody, V domains shown)
VH: QVQLVQSGAEVKKPGASVKVSCKASGFNNKDIYMHWVRQAPGQGLEWIGRIDPATGNTKHDPKFQDRVTMTSDTSTNTVYMELSSLRSEDTAVYYCARSPYGDFGAMDYWGQGTLVTVSS
VL: DIQMTQSPSSLSASVGDRVTITCTASSSVSSNYLHWYQQKPGSSPKLWIYSTSNLPSGVPSRFSGSGSGTDFTLTISSLQPEDFATYYCHQYHRSPWTFGQGTKVEIK
notes: Humanized form of #224; also called VH8 + VL7
Consider B3, for which the “% Relative activity (WT antibody/test antibody)” value in experiment [1] came to 139%; in experiment [2], 104%.

B4: 224-Hu3 (antibody, V domains shown)
VH: QVQLVQSGSELKKPGASVKVSCKASGFNNKDIYMHWVRQAPGQGLEWMGRIDPATGNTKHDPKFQDKAVLSSDTSVSTAYLQISSLKAEDTAVYYCARSPYGDFGAMDYWGQGTLVTVSS
VL: DIQMTQSPSSLSASVGDRVTITCTASSSVSSNYLHWYQQKPGKAPKLLIYSTSNLPSGVPSRFSGSGSGTDFTLTISSLQAEDAATYYCHQYHRSPWTFGQGTKVEIK
notes: Humanized form of #224; also called VH9 + VL8
As to B4, the “% Relative activity (WT antibody/test antibody)” value in experiment [1] turned out to be 116%; in experiment [2] it was 108%.

B5: 224-Hu5 (antibody, V domains shown)
VH: QVQLVQSGSELKKPGASVKVSCKASGFNNKDIYMHWVRQAPGQGLEWMGRIDPATGNTKHDPKFQDKAVLSSDTSVSTAYLQISSLKAEDTAVYYCARSPYGDFGAMDYWGQGTLVTVSS
VL: DIQMTQSPSSLSASVGDRVTITCTASSSVSSNYLHWYQQKPGKAPKLLIYSTSNLPSGVPSRFSGSGSGTDYSLTISSLQPEDFATYYCHQYHRSPWTFGQGTKVEIK
notes: Humanized form of #224; also called VH9 + VL9
Consider B5, for which the “% Relative activity (WT antibody/test antibody)” value is 112% in experiment [1] and 106% in experiment [2].

B6: 224-Hu2 (antibody, V domains shown)
VH: QVQLVQSGSELKKPGASVKVSCKASGFNNKDIYMHWVRQAPGQGLEWMGRIDPATGNTKHDPKFQDKAVLSSDTSVSTAYLQISSLKAEDTAVYYCARSPYGDFGAMDYWGQGTLVTVSS
VL: DIQMTQSPSSLSASVGDRVTITCTASSSVSSNYLHWYQQKPGSSPKLWIYSTSNLPSGVPSRFSGSGSGTDFTLTISSLQPEDFATYYCHQYHRSPWTFGQGTKVEIK
notes: Humanized form of #224; also called VH9 + VL7
For the molecule B6, the figures for the “% Relative activity (WT antibody/test antibody)” value in experiment [1] and in experiment [2] were 119% and 109%, respectively.

B7: 224-Hu4 (antibody, V domains shown)
VH: QVQLVQSGSELKKPGASVKVSCKASGFNNKDIYMHWVRQAPGQGLEWMGRIDPATGNTKHDPKFQDKAVLSSDTSVSTAYLQISSLKAEDTAVYYCARSPYGDFGAMDYWGQGTLVTVSS
VL: DIQMTQSPSSLSASVGDRVTITCTASSSVSSNYLHWYQQKPGKAPKLWIYSTSNLPSGVPSRFSGSGSGTDFTLTISSLQPEDFATYYCHQYHRSPWTFGQGTKVEIK
notes: Humanized form of #224; also called VH9 + VL6
In the case of B7, the entries for the “% Relative activity (WT antibody/test antibody)” value in experiment [1] and in experiment [2] were 131% and 108%, respectively.

B8: 224-WT (antibody, V domains shown)
VH: EVQLQESGPEIVKPGASVKLSCTASGFNNKDIYMHWVKQRPEQGLEWIGRIDPATGNTKHDPKFQDKATLSSDTSSNTAYLQFSSLTSEDTAVYYCAHSPYGDFGAMDYWGQGTTVTVSS
VL: DIQMTQSPAIMSASLGERVTMTCTASSSVSSNYLHWYQQKPGSSPKLWIYSTSNLPSGVPARFSGSGSGTSYSLTISSMEAEDAATYYCHQYHRSPWTFGGGTKLEIK
notes: Human-murine chimeric wild-type molecule; also called human-murine chimeric antibody WT of #224
As for B8, the “% Relative activity (Test antibody/WT antibody)” value in experiment [3] came out at 100%.

B9: 219-WT (antibody, V domains shown)
VH: EVQLQESGAELVRPGASVKLSCKASGYSFTNYWMNWVKQRPGQGLEWIGMIHPSDTETRLNQNFKDKATLTVDKSSSTSYMQLSSPTSEDSAVYYCARGEGLGAARSVSMDYWGQGTTVTVSS
VL: DILMTQSPSSLSASLGDRVTISCRASQDISNYLNWYQQKPDGTVKVLIYYTAILHSGVPSRFSGSGSGTDYSLTISNLEQEDIATYFCQQGNTLPWTFGGGTKLEIK
notes: Human-murine chimeric wild-type molecule
Consider B9, for which the “% Relative activity (Test antibody/WT antibody)” value in experiment [3] was 100%.

B10: 001-WT (antibody, V domains shown)
VH: EVQLQESGGGLVQPGGSLNLSCAASGFAFSTYDLSWVRQTPEKRLEWVAYINNGGISTYYSDTVKGRFTISRDNAKNTLYLQMSSLKSEDTAMYYCVRGPFYGSANYFDYWGQGTTVTVSS
VL: EIVMTQSPASLSLSVGETVTITCRTSESIYSNLPWYQQKQGKSPQLLVYDATKLAEGVPSRFSGSESGTQYSLKINSLQSEDFGTYYCQHFWVTPWTFGGGTKLEIK
notes: Human-murine chimeric wild-type molecule; also called human-murine chimeric antibody WT of #001
With B10, in experiment [3], the “% Relative activity (Test antibody/WT antibody)” value is 100%.

The record behind these values is patent publication US20240109974A1 (SHANDONG SIMCERE BIOPHARMACEUTICAL, published 2024).
